As a reminder, the Kd is the free concentration of one partner at which half of the binding sites on the other are occupied at equilibrium, for simple one-to-one binding.

Data set [1] deals with T1, WHTS, trimeric spike protein, wild-type (Wuhan) (SARS-CoV-2 (Wuhan), UniProt P0DTC2 14-1213). Kind of data set: dot blot.
Data set [2] concerns the target T1, WHTS, trimeric spike protein, wild-type …. Kind of data set: electrochemical impedance.
The target of data set [3] is WH-S1, spike S1 subunit, wild-type (SARS-CoV-2 (Wuhan), UniProt P0DTC2 14-685). Kind of data set: dot blot.
In data set [4] the target is T1, WHTS, trimeric spike protein, wild-type …. Description: electrochemical impedance. The source holds these as a separate data set.
The target is the same in data set [5]. Kind of data set: electrochemical impedance. This is another data set of the same source.

B1: DMC (ssDNA)
DNA: CTATATCCCTTTAAGCCTGTGGGTCCACGAATCTACCTCTTTTTTTTTTTTTTTTTTTTTTTTTTTTTTGCGTTCGGAGTGGGTCGTGCGGCGCGGGACGAGTGGTGT
B1: the binding result in data set [1] is listed as “no binding”.
On the same count and under the same terms, then CTATATCCCTTTAAGCCTGTGGGTCCACGAATCTACCTC (ssDNA) [M1C], with “no binding”.
On to TTCCGGTTAATTTATGCTCTACCCGTCCACCTACCGGAATTTT (structured_DNA, 3' thiol (3ThioMC3-D)) [MSA1T-SH], for which the binding result in data set [2] is “binds”.
As to GCGTTCGGAGTGGGTCGTGCGGCGCGGGACGAGTGGTGT (ssDNA) [M5C], the binding result in data set [1] is listed as “no binding”.

B2: MSA5 (structured_DNA)
DNA: TTACGTCAAGGTGTCACTCCACGGGTTTGGCGTCGGGCCTGGCGGGGGGATAGTGCGGTGGAAGCATCTCTTTGGCGTG
Regarding B2, the binding result in data set [3] is given as “binds”.
Molecule TTCCGGTTAATTTATGCTCTACCCGTCCACCTACCGGAA (structured_DNA) [MSA1T] gave a Kd in data set [1] of 11.9 ± 1.8 nM.

B3: DSA1N5-SH (structured_DNA)
DNA: TTCCGGTTAATTTATGCTCTACCCGTCCACCTACCGGAATTTTTTTTTTTTTTTTTTTTTTTTTTTTTTACGGGTTTGGCGTCGGGCCTGGCGGGGGGATAGTGCGGTTTTT
modifications: 3' thiol (3ThioMC3-D)
For the molecule B3, the binding result in data set [4] is on record as “binds”.
As for ACGGGTTTGGCGTCGGGCCTGGCGGGGGGATAGTGCGGTTTTT (structured_DNA, 3' thiol (3ThioMC3-D)) [MSA5T-SH], the binding result in data set [5] is “binds”.

B4: MSA1 (structured_DNA)
DNA: TTACGTCAAGGTGTCACTCCCACTTTCCGGTTAATTTATGCTCTACCCGTCCACCTACCGGAAGCATCTCTTTGGCGTG
For B4, the binding result in data set [3] was “binds”.

The values are drawn from publication PMC8596624.
